# Assay results reported in paper PMC4351820.
# B1: G-rich telomeric strand (TTAGGG)5 (ssDNA)
# DNA: TTAGGGTTAGGGTTAGGGTTAGGGTTAGGG
# Target: hSSB1 (SSB1, single-stranded DNA binding protein 1) (human, UniProt Q9BQ15 1-211)
# Experiment: EMSA
# hSSB1 (SSB1, single-stranded DNA binding protein 1), sequence (Q9BQ15 whole entry): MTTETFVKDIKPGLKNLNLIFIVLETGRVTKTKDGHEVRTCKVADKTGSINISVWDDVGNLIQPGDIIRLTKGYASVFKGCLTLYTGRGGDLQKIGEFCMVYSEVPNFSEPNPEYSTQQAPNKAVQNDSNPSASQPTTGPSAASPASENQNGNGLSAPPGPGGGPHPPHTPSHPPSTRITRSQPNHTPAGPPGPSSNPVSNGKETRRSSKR
binder,measurement,value
B1,binding result,binds
